Experimental findings from PMC4915627, “Staphylococcal Bap Proteins Build Amyloid Scaffold Biofilm Matrices in Response to Environmental Signals” (PLoS Pathogens, 2016) are described below.

Data set [1] deals with the molecule itself. The data set can be described thus: thioflavin-T fluorescence; fresh rBap_B at 0.01-0.036 mg/ml, 25 μM ThT, 25°C, pH 4.5, 5 min.
Data set [2] concerns the molecule itself. The data set can be described thus: gel formation + electron microscopy + thioflavin-T fluorescence; synthetic peptide at 10 μM, pH 4.5, citrate buffer, room temperature (25°C), four weeks.

B1: purified recombinant Bap_B protein (region B of Bap of S. aureus V329, amino acids 361-819, N-terminal hexahistidine tag) (domain or fragment)
chain: QKSLGYTDNYTFASMLFDPGKLDSDDALNSNIIPFDLHSYMSGANSGNRYKIDLKLDPIIAEHVTKISANPSGSNKPVEFVRNKDENGNLTDTWEVNFIRANDGLFGGAEILSQYTAKNGKIELDDTVGNIISNAGNLSNNKLNHQVFVRDSRENKIVRTSESSGYFLTKADDDLVNLENNVSTENNNAFKASSGSATYNENVGEFGGILIDQQIMKNGIFSYSKTKANQWAYNYQIDKDLLPYIEGVELHQYDYKGLNGFDKNYDAKNKVADLTIDEVGNGTITSDNLNKLIEFNNALPETVGVRVVLKLNKSVNNILTKDAKYDSEGNLIRETTKQKEDFTFAGYLTDSKGALINNTLGTSTLALQDYDKDGLLDRYERQLSLSDAENEDTDGDGKNDGDEVVNYKTSPLVGKPQAADITTEDTVVSGSVPLKEGAATQTAKVINAEGTTVGTATVN
notes: Biofilm associated protein Bap of Staphylococcus aureus V329, region B, amino acids 361-819 (1377 bp fragment cloned in pET46-Ek/LIC); The results give domain B as residues 362-819 (chimeras); the methods give 361-819 for the recombinant protein; also called B domain of Bap
As for B1, the binding result in data set [1] is “binds”.

B2: Bap_B amyloid peptide II (aa 579 to 584) (peptide)
peptide: GIFSYS
notes: Bap of Staphylococcus aureus, stretch of region B, aa 579 to 584; also called GIFSYS; source: synthetic peptide, bought: CASLO ApS
As to B2, the binding result in data set [2] is recorded as “binds”.

B3: Bap_B amyloid peptide I (aa 487 to 496) (peptide)
peptide: TVGNIISNAG
notes: Bap of Staphylococcus aureus, stretch of region B, aa 487 to 496; source: synthetic peptide, bought: CASLO ApS
Turning to B3, in data set [2], the binding result was “binds”.
